PMC8270905, “Structural basis of LAIR1 targeting by polymorphic Plasmodium RIFINs” (Nature Communications, 2021)

T1: RIFIN (PF3D7_1040300) V2 domain, His-tagged (Plasmodium falciparum 3D7, UniProt Q8IJ06 184-328)
T1 construct: RIFIN PF3D7_1040300 (RIF1) of Plasmodium falciparum 3D7, variable domain 2 (V2); PDB 7JZI holds the V2 domain of this RIFIN; also called RIF1; source: Expi293F or Expi293 GnTI- cells, transfected
T1 sequence: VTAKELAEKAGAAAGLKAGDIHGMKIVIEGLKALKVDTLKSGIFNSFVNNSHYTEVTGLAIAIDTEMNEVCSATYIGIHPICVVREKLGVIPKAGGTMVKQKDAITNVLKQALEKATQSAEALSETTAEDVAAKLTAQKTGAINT


Columns and labels:
[1] = target: RIFIN (co-IP of the LAIR1 mutation series, Fig. 2c) (Plasmodium falciparum 3D7); experiment: co-IP; conditioned media incubated with protein A resin for one hour at room temperature; Fc-tagged RIFIN or LAIR1 pulled down, partner without Fc co-pulled down; SDS-PAGE, Coomassie blue, bands quantified with ImageJ
[2] = target: RIFIN (co-IP of the LAIR1 mutation series, Fig. 2c); experiment: co-immunoprecipitation (Protein A Co-IP, SDS-PAGE band quantification); details: LAIR1 Fc tag; RIFIN-V2 MBP tag; n = 3 independent measurements; parent: est. 3.0; read off a plot
[3] = target: T1, RIFIN (PF3D7_1040300) V2 domain, …; experiment: BLI; fortéBio Octet Red384; His-tagged RIFIN V2 domain immobilised on Ni-NTA biosensors, dipped into LAIR1 or MGD21 in a twofold concentration series; global fit, 1:1 Langmuir model; details: both partners purified

Molecule	fold increase in affinity over native LAIR1 [1]	other: % pulldown vs MGD21 (% of MGD21 LAIR1 pulldown) [2]	further results
LAIR1 N153S (receptor)	10 fold	–	–
LAIR1 T151L (receptor)	10 fold	–	–
native human LAIR1 (from UniProt Q6GTX8) T151L; N153S	–	66	–
native human LAIR1 (from UniProt Q6GTX8) T151L; N153S; A161T; P190S; P191R	–	58	–
native human LAIR1 (from UniProt Q6GTX8) T151L; N153S; P190S; P191R	–	62	–
native human LAIR1 (receptor, N-linked glycosylation at N153 (MGD21 numbering), Leukocyte-associated immunoglobulin-like receptor 1 (LAIR1), human, unmutated; Probably the same limits as the MGD21 LAIR1 ectodomain; also called hLAIR1; unmutated (native) LAIR1; source: Expi293F or Expi293 GnTI- cells, transfected) QEEDLPRPSISAEPGTVIPLGSHVTFVCRGPVGVQTFRLERDSRSTYNDTEDVSQASPSESEARFRIDSVREGNAGLYRCIYYKPPKWSEQSDYLELLVKE	–	–	Kd [3]: > 1 µM
